The record followed here is US20220204643A1 (published 2022).

The target of assay [1] is T1, grancalcin, transcript variant 4 (human, UniProt P28676 1-217).
T1 construct: on protein array; also called GCA
T1 sequence: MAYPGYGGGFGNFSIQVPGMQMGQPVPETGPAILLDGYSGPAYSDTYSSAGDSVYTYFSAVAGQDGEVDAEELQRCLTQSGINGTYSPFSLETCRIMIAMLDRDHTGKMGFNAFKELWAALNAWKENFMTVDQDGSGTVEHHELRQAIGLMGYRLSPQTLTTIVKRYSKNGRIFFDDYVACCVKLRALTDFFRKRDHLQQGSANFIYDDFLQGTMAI
Nature of the assay: protein array.

Assay [2] addresses T2, sorting nexin 1, transcript variant 1 (human, UniProt Q13596 1-522).
T2 construct: on protein array; also called SNX1
Put plainly: protein array.

The next assay deals with T3, F-box protein 2 (human, UniProt Q9UK22 1-296).
T3 construct: on protein array; also called FBXO2
T3 sequence: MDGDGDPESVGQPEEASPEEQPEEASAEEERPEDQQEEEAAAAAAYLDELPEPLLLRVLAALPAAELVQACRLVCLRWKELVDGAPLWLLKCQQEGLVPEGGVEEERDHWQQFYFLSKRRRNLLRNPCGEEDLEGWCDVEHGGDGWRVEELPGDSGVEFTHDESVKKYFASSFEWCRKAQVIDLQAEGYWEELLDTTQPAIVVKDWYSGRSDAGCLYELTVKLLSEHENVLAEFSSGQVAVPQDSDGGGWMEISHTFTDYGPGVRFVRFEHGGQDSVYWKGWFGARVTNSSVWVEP
Put plainly: protein array.

For another assay, the target named is T4, tubulin gamma 1 (human, UniProt P23258 1-451).
T4 construct: on protein array; also called TUBG1
T4 sequence (P23258 whole entry): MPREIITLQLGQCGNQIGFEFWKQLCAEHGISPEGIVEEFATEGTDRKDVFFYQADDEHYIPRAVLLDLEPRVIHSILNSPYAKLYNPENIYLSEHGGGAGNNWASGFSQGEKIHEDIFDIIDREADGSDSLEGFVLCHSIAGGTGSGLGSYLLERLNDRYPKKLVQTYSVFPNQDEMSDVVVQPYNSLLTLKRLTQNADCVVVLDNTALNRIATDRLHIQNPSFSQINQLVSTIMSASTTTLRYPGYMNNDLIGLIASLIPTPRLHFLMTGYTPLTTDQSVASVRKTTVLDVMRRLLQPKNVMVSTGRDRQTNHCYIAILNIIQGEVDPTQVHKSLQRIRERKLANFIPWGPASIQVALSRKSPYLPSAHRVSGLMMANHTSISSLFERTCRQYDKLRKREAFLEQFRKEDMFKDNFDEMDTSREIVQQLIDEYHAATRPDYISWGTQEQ
Put plainly: protein array.

Assay [3] has as its target T5, nudix hydrolase 22, transcript variant 2 (human, UniProt Q9BRQ3 1-303).
T5 construct: on protein array; also called NUDT22
T5 chain: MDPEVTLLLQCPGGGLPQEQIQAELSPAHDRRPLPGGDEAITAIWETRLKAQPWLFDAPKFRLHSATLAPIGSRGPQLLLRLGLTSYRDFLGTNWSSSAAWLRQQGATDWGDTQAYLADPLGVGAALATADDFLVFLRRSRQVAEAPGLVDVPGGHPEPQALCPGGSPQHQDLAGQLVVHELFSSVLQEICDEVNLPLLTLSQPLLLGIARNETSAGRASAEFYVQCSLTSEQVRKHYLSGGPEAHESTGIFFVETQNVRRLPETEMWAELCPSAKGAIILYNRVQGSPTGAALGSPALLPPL
Nature of the assay: protein array.

The target of a further assay is T6, DEAD-box helicase 53 (human, UniProt Q86TM3 1-631).
T6 construct: on protein array; also called DDX53
T6 sequence (Q86TM3 other isoform, or with tags, fused parts or gaps limits assumed): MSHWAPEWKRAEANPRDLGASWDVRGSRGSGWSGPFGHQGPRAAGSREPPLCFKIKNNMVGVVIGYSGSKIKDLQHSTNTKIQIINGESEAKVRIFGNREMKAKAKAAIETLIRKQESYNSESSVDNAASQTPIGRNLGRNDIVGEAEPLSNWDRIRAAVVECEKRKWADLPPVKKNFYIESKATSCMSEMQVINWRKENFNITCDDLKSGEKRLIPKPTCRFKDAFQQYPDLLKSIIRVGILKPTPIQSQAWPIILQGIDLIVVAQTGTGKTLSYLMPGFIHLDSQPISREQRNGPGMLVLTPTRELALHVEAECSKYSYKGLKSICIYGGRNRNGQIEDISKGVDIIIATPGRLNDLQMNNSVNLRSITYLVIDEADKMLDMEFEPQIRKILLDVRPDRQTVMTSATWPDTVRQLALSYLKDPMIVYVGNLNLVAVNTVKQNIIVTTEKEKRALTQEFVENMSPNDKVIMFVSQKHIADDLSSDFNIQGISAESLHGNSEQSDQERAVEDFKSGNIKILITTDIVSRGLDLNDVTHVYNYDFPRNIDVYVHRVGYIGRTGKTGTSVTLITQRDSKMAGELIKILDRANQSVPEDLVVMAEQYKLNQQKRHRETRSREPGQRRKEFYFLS
Nature of the assay: protein array.

Assay [4] deals with T7, Vezatin, adherens junctions transmembrane protein (human, UniProt Q9HBM0 56-779 at identity 0.99)).
T7 construct: on protein array; also called VEZT
T7 chain: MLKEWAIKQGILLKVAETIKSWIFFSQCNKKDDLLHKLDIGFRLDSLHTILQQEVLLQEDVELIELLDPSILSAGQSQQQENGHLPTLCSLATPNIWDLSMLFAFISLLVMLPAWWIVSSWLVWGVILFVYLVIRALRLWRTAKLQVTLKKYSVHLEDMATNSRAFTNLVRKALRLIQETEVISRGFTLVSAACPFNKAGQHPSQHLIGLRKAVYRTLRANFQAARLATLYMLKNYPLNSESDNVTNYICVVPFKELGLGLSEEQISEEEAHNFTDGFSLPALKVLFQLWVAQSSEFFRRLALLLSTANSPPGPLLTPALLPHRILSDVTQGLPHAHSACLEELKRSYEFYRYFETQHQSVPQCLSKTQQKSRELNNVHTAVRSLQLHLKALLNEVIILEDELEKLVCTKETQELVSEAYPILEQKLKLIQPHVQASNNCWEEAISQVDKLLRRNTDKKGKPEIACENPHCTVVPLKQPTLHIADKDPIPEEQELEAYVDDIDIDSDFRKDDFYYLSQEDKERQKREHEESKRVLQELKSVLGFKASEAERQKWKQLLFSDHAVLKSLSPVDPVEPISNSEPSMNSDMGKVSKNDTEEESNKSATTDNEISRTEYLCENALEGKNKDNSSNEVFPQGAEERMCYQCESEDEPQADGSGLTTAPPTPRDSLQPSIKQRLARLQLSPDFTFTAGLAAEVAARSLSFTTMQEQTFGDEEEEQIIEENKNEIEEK
Nature of the assay: protein array.

In the next assay the target is T8, Deoxyhypusine synthase (human, UniProt P49366 1-369).
T8 construct: on protein array; also called DHPS
T8 sequence: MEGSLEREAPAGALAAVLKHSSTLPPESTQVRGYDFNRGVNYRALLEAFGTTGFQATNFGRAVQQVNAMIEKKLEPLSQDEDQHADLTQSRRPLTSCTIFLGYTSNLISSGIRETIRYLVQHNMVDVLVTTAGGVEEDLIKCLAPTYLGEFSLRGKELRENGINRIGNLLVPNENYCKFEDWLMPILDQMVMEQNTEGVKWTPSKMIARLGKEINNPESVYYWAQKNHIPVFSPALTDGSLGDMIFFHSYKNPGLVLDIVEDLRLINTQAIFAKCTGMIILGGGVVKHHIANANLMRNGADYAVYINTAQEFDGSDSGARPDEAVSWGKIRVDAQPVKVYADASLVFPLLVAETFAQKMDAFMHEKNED
Put plainly: protein array.

Assay [5] has as its target T9, HEAT repeat containing 3, transcript variant 1 (human, UniProt Q7Z4Q2 1-680).
T9 construct: on protein array; also called HEATR3
T9 sequence: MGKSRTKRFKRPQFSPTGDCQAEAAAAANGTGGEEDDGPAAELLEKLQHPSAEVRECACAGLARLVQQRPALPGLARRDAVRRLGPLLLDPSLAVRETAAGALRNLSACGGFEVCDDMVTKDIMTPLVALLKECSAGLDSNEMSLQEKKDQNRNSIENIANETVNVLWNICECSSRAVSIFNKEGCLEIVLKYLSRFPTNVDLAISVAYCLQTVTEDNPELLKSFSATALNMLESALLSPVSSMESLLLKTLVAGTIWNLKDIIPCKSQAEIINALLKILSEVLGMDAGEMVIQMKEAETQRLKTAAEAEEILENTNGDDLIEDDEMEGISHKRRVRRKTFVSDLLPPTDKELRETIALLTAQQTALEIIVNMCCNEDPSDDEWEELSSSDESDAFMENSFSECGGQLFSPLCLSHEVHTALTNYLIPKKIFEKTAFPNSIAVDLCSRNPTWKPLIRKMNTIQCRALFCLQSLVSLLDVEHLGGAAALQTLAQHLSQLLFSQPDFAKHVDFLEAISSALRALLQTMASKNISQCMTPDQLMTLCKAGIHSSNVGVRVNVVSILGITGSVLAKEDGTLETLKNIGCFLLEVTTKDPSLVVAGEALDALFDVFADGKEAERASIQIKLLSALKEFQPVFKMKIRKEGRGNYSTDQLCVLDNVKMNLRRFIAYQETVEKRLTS
Put plainly: protein array, with experimental replicate.

Assay [6] addresses T10, Rna polymerase iii subunit g (human, UniProt O15318 1-223).
T10 construct: on protein array; also called POLR3G
T10 sequence: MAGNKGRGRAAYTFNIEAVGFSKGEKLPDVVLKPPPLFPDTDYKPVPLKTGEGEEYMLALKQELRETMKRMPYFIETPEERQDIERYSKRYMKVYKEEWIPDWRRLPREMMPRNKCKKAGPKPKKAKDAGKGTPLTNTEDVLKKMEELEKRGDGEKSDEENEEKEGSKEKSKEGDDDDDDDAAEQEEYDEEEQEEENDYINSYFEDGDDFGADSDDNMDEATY
Nature of the assay: protein array.

The target of assay [7] is T11, CRK like proto-oncogene, adaptor protein, transcript variant 1 (human, UniProt P46109 1-303).
T11 construct: on protein array
T11 sequence (P46109 whole entry, change not shown): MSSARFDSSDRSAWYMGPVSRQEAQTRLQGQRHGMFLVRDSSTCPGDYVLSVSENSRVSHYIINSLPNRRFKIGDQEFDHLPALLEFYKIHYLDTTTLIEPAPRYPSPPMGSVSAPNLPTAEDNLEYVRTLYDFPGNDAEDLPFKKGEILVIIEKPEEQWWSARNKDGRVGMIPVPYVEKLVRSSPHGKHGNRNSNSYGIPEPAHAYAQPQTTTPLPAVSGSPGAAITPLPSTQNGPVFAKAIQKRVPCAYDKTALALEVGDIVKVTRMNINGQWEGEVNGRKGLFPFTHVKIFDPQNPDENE
Nature of the assay: protein array, with experimental replicate.

T2 sequence (Q13596 whole entry, change not shown): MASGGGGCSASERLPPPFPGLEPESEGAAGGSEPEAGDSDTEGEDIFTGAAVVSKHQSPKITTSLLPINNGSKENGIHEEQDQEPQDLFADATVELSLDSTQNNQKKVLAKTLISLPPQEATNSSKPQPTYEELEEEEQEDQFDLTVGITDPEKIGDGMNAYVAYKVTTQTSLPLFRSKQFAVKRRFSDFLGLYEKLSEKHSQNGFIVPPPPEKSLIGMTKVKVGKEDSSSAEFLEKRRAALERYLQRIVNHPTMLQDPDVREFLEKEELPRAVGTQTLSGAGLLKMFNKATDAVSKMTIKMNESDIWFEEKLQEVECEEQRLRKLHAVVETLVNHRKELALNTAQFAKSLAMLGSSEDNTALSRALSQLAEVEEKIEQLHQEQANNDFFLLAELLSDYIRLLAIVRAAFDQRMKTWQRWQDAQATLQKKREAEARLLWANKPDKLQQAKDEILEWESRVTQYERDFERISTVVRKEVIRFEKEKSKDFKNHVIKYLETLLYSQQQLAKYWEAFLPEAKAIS

B1: TPAN1001 (antibody, V domains shown)
VH: QVQLVQSGAEVKKPGSSVKVSCKASRGTFSNHAVSWVRQAPGQGLEWVGGIIPVFGPPNYAQKFRGRVTITADRSTNTAYMELNSLRSEDTAVYYCARTQWGTDVEATNPYYYFMDVWGKGTTVTVSS
VL: EIVLTQSPGTLSLSPGHRATLSCRASQDVASTYLAWYQQKPGQAPRLLIYGASSRATGIPDRFSGSGSGTDFTLTISRLEPEDFAVFYCQYYGGSPGFTFGPGTKVDFKR
notes: VH/VL tied via antigen in summary, not by name in this stretch
In the case of B1, in [1], the binding result was “binds”.

B2: TPAN1004 (antibody, V domains shown)
VH: QIQLVQSGAEVKKPGASVKVSCKTSGYTFTHYGVAWVRQAPGQGPEWMGWISPYNGNIEYGQKFQGRVTMTTDTSTNTAYMELRSLRYDDTAVYYCARDLDEINSSWLDPWGQGTLIIVSP
VL: EIVLTQSPATLSLSPGERATLSCRASQSVSSNYLAWYQQKPGQAPRLLIHGASSRATGFPDRFSGSGSGTDFTLTINRLEPEDFAVYYCQQYGTSPQTFGQGTKVEIKR
notes: as for B1
As for B2, the binding result in assay [2] is reported as “binds”.

B3: TPAN1007 (antibody, V domains shown)
VH: PVQLVQSGAEVKKPGESLKISCQGSGYNFSRYWIGWVRQMPGKGLEWMGVVFPGDSDIRYSLSFQGHITIYADNSISTAYLQWSSLKASDTAIYYCATTSTMPMPTRGRDWFDPWGQGTLVTVSS
VL: PSVLTQPPSVSGAPGQRVTISCTGSSSNIGAGYDVHWYQQLPGTAPKLLIYANTNRPSGVPDRFSGSKSGTSASLAITGLQAEDEADYYCQSYDNSLSGGVFGGGTKLTVLG
notes: as for B1
In the case of B3, the binding result with F-box protein 2 and with tubulin gamma 1 was “binds” throughout.

B4: TOVA1007 (antibody, V domains shown)
VH: PVQLQESGPGLVNPSQTLSLTCTVSGGSISSGGYCWSWVRQHPGKGLEWIGCIYYIGTTYYMRSLKSRLIISIDTSKNQFSLKLTSVTAADSAVYYCARGGELLGGFGYSGMDVWGQGTTVTVSS
VL: not shown
notes: as for B1
In the case of B4, the binding result in assay [3] is reported as “binds”.

B5: TOVA1005 (antibody, V domains shown)
VH: QITLKESGPTLVKPTQTLTLTCTFSGFSLSTNGVGVGWIRQPPGKALEWLALINWDDDKRYSPSLKSRLTITKDTSKNQVVLTMTNLDPVDTATYYCVHARDDYGDSAWSTGPVWGQGTLVTVSS
VL: DFLLTQPHSVSESPGKTVTISCTRSSGSIASNYVQWYQQRPGSSPSTVIYEDHQRPSGVPGRFSGSIDSSSNSASLTISGLKTEDEADYFCQSSDSNNHVVFGGGTKLTVLG
notes: as for B1
Consider B5, for which the binding result (with DEAD-box helicase 53; in assay [4]) was “binds” in each case.

B6: TOVA1003 (antibody)
VH: GEQLLESGGGLVQPGGSLRLSCAASGFTFSHYAMTWVRQAPGKGLEWVSGVSGSGFTTYYADSVKGRFTISRDNAQNTLYLHMNSLRAEDTAIYYCVKDLEVSIGHNFDFWGQGTLVTVSSASTKGPSVFPLAPSSKSTSGGTAALGCLVKDYFPEPVTVSWNSGALTSGVHTFPAVLQSSGLYSLSSVVTVPSSSLGTQTYICNVNHKPSNTKVDKRV
VL: EVQMTQSPSSLSASVGDRVTITCRASQHIAGRLNWYQQKPGKAPKLLIHSASSVQREVPSRFGGSGFGTDFTLTIYSLQAEDFATYFCQQSYYTPPTFAGGTRVDLKRTVAAPSVFIFPPSDEQLKSGTASVVCLLNNFYPREAKVQWKVDNALQSGNSQESVTEQDSKDSTYSLSSTLTLSKADYEKHKVYACEVTHQGLSSPVTKSFNRGEC
notes: as for B1
As for B6, in the assay with Deoxyhypusine synthase, the binding result was “binds”.

B7: TOVA1004 (antibody, V domains shown)
VH: EVQLVESGGGLVKPGGSLRLSCAASGFTFSSYSMNWVRQAPGKGLEWVSSISSSSSYIYYADSVKGRFTISRDNAKNSLYLQMNSLRAEDTAVYYCARDRGVVVVAATPYYYGMDVWGQGTTVTVSS
VL: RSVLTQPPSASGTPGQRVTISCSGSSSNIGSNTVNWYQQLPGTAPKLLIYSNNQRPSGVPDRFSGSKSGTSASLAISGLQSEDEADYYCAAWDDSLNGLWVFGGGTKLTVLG
notes: as for B1
Turning to B7, the binding result in assay [5] is reported as “binds”.

B8: TPAN1003 (antibody, V domains shown)
VH: QVQLVQSGAEVKKPGASVKISCQAFGYNFIDNAIHWVRQAPGQRPEWMGWINAGNGNTRYSQNFQGRVTITKVTSASTAYMEMSRLKSEDTAVYFCARSSKWTDWHFDYWGQGTLVTVSS
VL: EIVLTQSPGTLSLSPGETATLSCRASQSVANNYLAWHQQKPGQAPRLLIYGASKRAAGIPDRFSGSGSGTEFTLTISRLEPEDCAVYYCQEYVKSPGFAFGPGTRVDIKR
notes: as for B1
Take B8: the binding result in assay [6] was “binds”.

B9: TPAN1006 (antibody, V domains shown)
VH: QVQLVQSGAEVKKPGASVKLSCKPSGYTFSSYYIHWLRQAPGQGLEWMGIINPSGGYTSSAQKFQGRVTMTRDTSTSTIYMELSSLRAEDTAVYYCARRGEVGTMVRVFRKPFDYWGQGTLVTVSS
VL: QSVLTQPPSVSGAPGQRVTISCTGSSSNIGAQYDVHWYKVIPGTAPKLLIYGNDNRPSGVPDRFSGSKSGTSASLAITGLQSEDEADYYCQSNDISLSGSVVFGGGTKLTVLG
notes: as for B1
In the case of B9, the binding result in assay [7] is recorded as “binds”.
